US20050079613A1, “Downregulation of cell surface glycoproteins by a family of human ubiquitin ligases” (Oregon Health & Science University, priority 2002, published 2005)

Columns and labels:
Type in all cases: cell-based, human
HLA class I (MHC I) = assay: Surface expression of endogenous MHC I on transfected HeLa cells, flow cytometry
Experimental: (§1) Flow cytometry. Cells were removed from tissue culture dishes with 0.05% Trypsin-EDTA (Invitrogen), washed with ice-cold PBS, and incubated with appropriate antibody for 30 minutes at 4° C. The cells were washed with ice-cold PBS and either resuspended in ice-cold PBS or incubated with PE-conjugated anti-mouse secondary antibody (DAKO) and washed again before analysis with a BD Biosciences (San Jose, Calif.) FACScalibur flow cytometer.
(§2) The ability to downregulate MHC I is common to KSHV-K3, KSHV-K5, MHV68-K3 and MV-M153R (Coscoy and Ganem, 2000, supra; Guerin et al., 2002, supra; Ishido et al., 2000b supra; Stevenson et al., 2000, supra). Additional substrates are ICAM-1 and B7.2 (but not B7.1) for KSHV-K5, as well as CD95 and CD4 for M153R (Coscoy and Ganem, 2001, supra; Guerin et al., 2002, supra; Ishido et al., 2000a, supra; Mansouri et al., 2003, supra). Since only low copy numbers were detected in HeLa cells for transcripts corresponding to each of the MARCH-proteins (FIG. 7C, and data not shown), HeLa cells were transfected with expression plasmids for MARCH-I, II, III, IV, V and VIII. Surface expression of selected glycoproteins was monitored upon transfection. The following known substrates for viral K3-family members were tested: Fas (CD95) and HLA class I (MHC I), both of which are endogenously expressed in HeLa cells, as well as transfected HLA-A2.1 or CD4. […] Surface expression of the respective markers was analyzed by flow cytometry. GFP was used to identify transfected cells.
With regards to whether MHC I downregulation by MARCH-IV was only observed at very high expression levels, since the viral immune evasion genes seem to be dedicated to MHC I downregulation, MHC I expression was compared at different expression levels of MARCH-IV or KSHV-K5 by taking advantage of the tetracycline-regulatable system to partially express either protein (Gossen, M. and H. Bujard, Proc. Natl. Acad. Sci. USA 89:5547-5551, 1992). Tet-off HeLa cells were transfected with either MARCH-IV or with KSHV-K5 in the presence of increasing amounts of tetracycline to shut off transcription. […]

CD4 = assay: Surface expression of co-transfected CD4 on HeLa cells, flow cytometry
Experimental: as §1
as §2, with “transfection.” for “transfection. The following known substrates for viral K3-family members were tested: Fas (CD95) and HLA class I (MHC I), both of which are endogenously expressed in HeLa cells, as well as transfected HLA-A2.1 or CD4.”, “GFP was used to identify transfected cells.” left out

HLA-A2.1 = assay: Pulse-chase of HLA-A2.1 maturation and turnover in transfected HeLa cells; conditions: HeLa cells co-transfected with HLA-A2.1 and MARCH-IV, chase up to 8 hours
Experimental: Metabolic labeling, immunoprecipitation and Western blotting. HeLa cells were grown to 80% confluency in 100 mm tissue culture dishes and transfected as above. Cells were incubated in serum-free and methionine-free medium for 30 minutes, and metabolically labeled with ^35S-cysteine/^35S-methionine (250 μCi, Amersham) for the indicated time. After labeling, cells were washed twice with PBS and either lysed immediately in PBS containing 1% Triton X-100 and protease inhibitors (Roche, Indianapolis, Ind.), or the label was chased with excess (2 mM) unlabeled cysteine and methionine in the presence or absence of specific inhibitors for the indicated time. The cell lysates were precleared with protein A/G agarose beads and incubated with 3 μg of antibody for one hour and followed by two hours incubation with protein A/G beads. Immunoprecipated proteins were washed five times with 0.1% Triton X-100 in PBS. All samples were boiled in SDS buffer and analyzed by SDS-PAGE gel electrophoresis. Where indicated, samples were treated with Endoglycosidase H (Roche) according to manufacturer's instructions. Briefly, samples were initially denatured at 100° C. in 40 μl of 0.3% SDS, 150 mM 2-mercaptoethanol, 50 mM sodium acetate, pH 5.5 and incubated with 4 milli-Units of Endo H overnight at 37° C. All samples were boiled in SDS buffer and analyzed by SDS-PAGE gel electrophoresis. […]

B1: MARCH-IV: human membrane-associated RING-CH ubiquitin ligase, SEQ ID NOS:45 and 57; construct used lacks the first 63 amino-acids (protein)
chain: WYCYGLCAPAPQMLRHQGLLKCRCRMLFNDLKVFLLRRPPQAPLPMHGDPQPPGLAANNTLPALGAGGWAGWRGPREVVGREPPPVPPPPPLPPSSVEDDWGGPATEPPASLLSSASSDDFCKEKTEDRYSLGSSLDSGMRTPLCRICFQGPEQGELLSPCRCDGSVKCTHQPCLIKWISERGCWSCELCYYKYHVIAISTKNPLQWQAISLTVIEKVQVAAAILGSLFLIASISWLIWSTFSPSARWQRQDLLFQICYGMYGFMDVVCIGLIIHEGPSVYRIFKRWQAVNQQWKVLNYDKTKDLEDQKAGGRTNPRTSSSTQANIPSSEEETAGTPAPEQGPAQAAGHPSGPLSHHHCAYTILHILSHLRPHEQRSPPGSSRELVMRVTTV
surface expression of MHC I (HLA class I (MHC I); HeLa cells transfected with MARCH plasmid and GFP, 24 h post-transfection): significantly downregulated | MHC I downregulation at tetracycline-regulated expression levels (HLA class I (MHC I); Tet-off HeLa cells, increasing amounts of tetracycline, below the detectable level of RING-CH protein expression): partial MHC I downregulation | surface expression of transfected CD4 (CD4; HeLa cells co-transfected with CD4 and MARCH plasmid): reduced the surface expression | downregulation of CD4 with lysines removed from the cytoplasmic tail (CD4; HeLa cells, lysine-deleted CD4): resistance | fate of HLA-A2.1 in pulse-chase (HLA-A2.1): exits the ER but is degraded
